Source: the supplement of paper PMC7877785
± gives the uncertainty stated by the source.

Experiment: self-splicing fitness, log relative to wild type (ln ratio); higher = more splicing; Tetrahymena group I intron in knt gene, E. coli kanamycin selection, DiMSum; sequences stand for … in CUCUCU…GGAGGGAAAAGUUAUCAGGCAUGCACCUGGUAGCUAGUCUUUAAACCAAUAGAUUGCAUCGGUUUAAAAGGCAAGACCGUCAAAUUGCGGGAAAGGGGUCAACAGCCGUUCAGUACCAAGUCUCAGGGGAAACUUUGAGAUGGCCUUGCAAAGGGUAUGGUAAUAAGCUGACGGACAUGGUCCUAACCACGCAGCCAAGUCCUAAGUCAACAGAUCUUCUGUUGAUAUGGAUGCAGUUCACAGACUAAAUGUCGGUCGGGGAAGAUGUAUUCUUCUCAUAAGAUAUAGUCGGACCUCUCCUUAAUGGGAGCUAGCGGAUGAAGUGAUGCAACACUGGAGCCGCUGGGAACUAAUUUGUAUGCGAAAGUAUAUUGAUUAGUUUUGGAGUACUCGUGGUCG
Procedure, shortened: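 The eight P1ex-region nucleotides of an intron in the knt kanamycin-resistance gene on pET-22b(+) were all randomised and the library put into E. coli BL21(DE3). Six replicate transformations were grown overnight at 37°C or 30°C on LB agar with or without 25 μg/mL kanamycin, together with 100 μg/mL carbenicillin, 50 μM IPTG and 0.2% rhamnose. Colonies were pooled and amplicon-sequenced on an Illumina HiSeq 2500. Fitness from DiMSum is the error-weighted combination of wild-type-normalised replicate fold changes, kanamycin over none.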

| Sequence | self-splicing fitness (ln) (30 °C) | self-splicing fitness (ln) (37 °C) |
| --- | --- | --- |
| UUCAAGCAAUAUUACGCAUC | -3.87 ± 0.29 | -1.81 ± 0.17 |
| UUCAAGCAAUAUUACGCCUG |  | -1.64 ± 0.34 |
| UUCAAGCAAUAUUACGCGAU | -2.11 ± 0.16 | -3 ± 0.34 |
| UUCAAGCAAUAUUACGCUAG | -2.23 ± 0.23 | -2.32 ± 0.26 |
| UUCAAGCAAUAUUACGGACA | -0.496 ± 0.12 | 0.121 ± 0.11 |
| UUCAAGCAAUAUUACGGAUU | -3.19 ± 0.17 | -1.96 ± 0.14 |
| UUCAAGCAAUAUUACGGCUA | -0.138 ± 0.094 | -0.12 ± 0.087 |
| UUCAAGCAAUAUUACGGGAG | -1.78 ± 0.098 | -0.95 ± 0.097 |
| UUCAAGCAAUAUUACGGGCG | -0.977 ± 0.077 | -0.629 ± 0.1 |
| UUCAAGCAAUAUUACGGGGU | -3.57 ± 0.21 | -3.15 ± 0.25 |
| UUCAAGCAAUAUUACGGUGG | -1.54 ± 0.12 | -0.439 ± 0.13 |
| UUCAAGCAAUAUUACGGUUG | -2.96 ± 0.14 | -2.41 ± 0.18 |
| UUCAAGCAAUAUUACGUAAA | -0.739 ± 0.086 | -0.541 ± 0.14 |
| UUCAAGCAAUAUUACGUCCU | -1.99 ± 0.12 | -1.04 ± 0.14 |
| UUCAAGCAAUAUUACGUCGC | -4.02 ± 0.3 | -2.17 ± 0.3 |
| UUCAAGCAAUAUUACGUGGG | -3.07 ± 0.11 | -1.97 ± 0.13 |
| UUCCAGCAAUAUUACGAAAA | -0.987 ± 0.11 | 0.126 ± 0.11 |
| UUCCAGCAAUAUUACGACCU | -2.38 ± 0.26 | -3.19 ± 0.39 |
| UUCCAGCAAUAUUACGACGU | -2.06 ± 0.18 | -2.18 ± 0.2 |
| UUCCAGCAAUAUUACGAUGG | -2.91 ± 0.24 |  |
| UUCCAGCAAUAUUACGAUGU | -3.24 ± 0.12 | -2.22 ± 0.16 |
| UUCCAGCAAUAUUACGCAAG | -1.62 ± 0.07 | -0.644 ± 0.09 |
| UUCCAGCAAUAUUACGCCAA | -0.739 ± 0.12 | -0.362 ± 0.17 |
| UUCCAGCAAUAUUACGCUAU | -2.04 ± 0.085 | -0.605 ± 0.083 |
| UUCCAGCAAUAUUACGCUCC | -2.51 ± 0.24 | -0.988 ± 0.22 |
| UUCCAGCAAUAUUACGCUGG | -3.73 ± 0.27 | -2.51 ± 0.31 |

| Sequence | self-splicing fitness (ln) (30 °C) | self-splicing fitness (ln) (37 °C) |
| --- | --- | --- |
| UUCCAGCAAUAUUACGGAAC |  | -3.19 ± 0.4 |
| UUCCAGCAAUAUUACGGACA | -0.469 ± 0.068 | -0.0722 ± 0.077 |
| UUCCAGCAAUAUUACGGAUU | -1.9 ± 0.11 | -1.01 ± 0.12 |
| UUCCAGCAAUAUUACGGCAC | -2.78 ± 0.21 | -0.351 ± 0.2 |
| UUCCAGCAAUAUUACGGCUU | -1.4 ± 0.11 | -0.36 ± 0.1 |
| UUCCAGCAAUAUUACGGGCA | -0.578 ± 0.067 | 0.454 ± 0.089 |
| UUCCAGCAAUAUUACGUACC | -2.05 ± 0.24 | -1.71 ± 0.31 |
| UUCCAGCAAUAUUACGUAGG | -4.29 ± 0.42 | -2.44 ± 0.23 |
| UUCCAGCAAUAUUACGUCAC | -2.79 ± 0.18 | -3.15 ± 0.29 |
| UUCCAGCAAUAUUACGUGCC |  | -2.5 ± 0.39 |
| UUCCAGCAAUAUUACGUGGU | -3.26 ± 0.17 | -2.08 ± 0.14 |
| UUCCAGCAAUAUUACGUUAU | -3.08 ± 0.12 | -1.95 ± 0.15 |
| UUCCAGCAAUAUUACGUUCA | -0.829 ± 0.13 | 0.389 ± 0.12 |
| UUCCAGCAAUAUUACGUUGG | -3.19 ± 0.21 | -2.53 ± 0.21 |
| UUCGAGCAAUAUUACGAACU | -3.28 ± 0.32 | -0.827 ± 0.44 |
| UUCGAGCAAUAUUACGAGUC | -2.82 ± 0.29 | -2.03 ± 0.45 |
| UUCGAGCAAUAUUACGAUUC | -3.5 ± 0.44 |  |
| UUCGAGCAAUAUUACGCAGG | -2.48 ± 0.27 | -1.82 ± 0.23 |
| UUCGAGCAAUAUUACGCCUG | -3.17 ± 0.29 | -2.64 ± 0.2 |
| UUCGAGCAAUAUUACGCGAG | -2.72 ± 0.37 | -1.94 ± 0.44 |
| UUCGAGCAAUAUUACGCGGA | -2.94 ± 0.25 | -3.71 ± 0.39 |
| UUCGAGCAAUAUUACGGCUA | -1.51 ± 0.38 | -0.029 ± 0.37 |
| UUCGAGCAAUAUUACGGGCG | -2.45 ± 0.2 | -1.01 ± 0.18 |
| UUCGAGCAAUAUUACGUAAG | -3.03 ± 0.36 | -3.24 ± 0.42 |
| UUCGAGCAAUAUUACGUGGA | -2.74 ± 0.22 | -2.58 ± 0.2 |
| UUCGAGCAAUAUUACGUGGG | -2.45 ± 0.12 | -2.75 ± 0.19 |

| Sequence | self-splicing fitness (ln) (30 °C) | self-splicing fitness (ln) (37 °C) |
| --- | --- | --- |
| UUCGAGCAAUAUUACGUUGC | -2.18 ± 0.23 | -1.27 ± 0.28 |
| UUCGAGCAAUAUUACGUUGG | -4.14 ± 0.39 | -2.03 ± 0.43 |
| UUCGAGCAAUAUUACGUUUA | -2 ± 0.16 | -1.54 ± 0.16 |
| UUCUAGCAAUAUUACGAAGC |  | -1.2 ± 0.45 |
| UUCUAGCAAUAUUACGAAUA | -2.64 ± 0.3 | -0.478 ± 0.17 |
| UUCUAGCAAUAUUACGAGGC |  | -2.11 ± 0.38 |
| UUCUAGCAAUAUUACGAGUG | 0.0611 ± 0.065 | 0.118 ± 0.094 |
| UUCUAGCAAUAUUACGAUUU | -1.54 ± 0.16 | -1.33 ± 0.15 |
| UUCUAGCAAUAUUACGGAGU | -2.24 ± 0.2 | -2.56 ± 0.26 |
| UUCUAGCAAUAUUACGGCCA | -2.24 ± 0.4 | -1.84 ± 0.42 |
| UUCUAGCAAUAUUACGGGUA | -0.701 ± 0.18 | -0.842 ± 0.2 |
| UUCUAGCAAUAUUACGGUUA | -1.7 ± 0.11 | -0.789 ± 0.093 |
| UUCUAGCAAUAUUACGUGUA | -1.26 ± 0.08 | -0.8 ± 0.094 |
| UUGAAGCAAUAUUACGAAUG | -0.746 ± 0.081 | -0.263 ± 0.11 |
| UUGAAGCAAUAUUACGAGGG | -1.6 ± 0.17 | -1.37 ± 0.24 |
| UUGAAGCAAUAUUACGAGGU | -4.15 ± 0.37 | -1.78 ± 0.22 |
| UUGAAGCAAUAUUACGAGUC | -3.73 ± 0.32 | -2.8 ± 0.38 |
| UUGAAGCAAUAUUACGAGUG | -0.347 ± 0.055 | -0.22 ± 0.077 |
| UUGAAGCAAUAUUACGAUUG | -1.35 ± 0.088 | 0.272 ± 0.11 |
| UUGAAGCAAUAUUACGCAAG | -0.402 ± 0.099 | 0.251 ± 0.12 |
| UUGAAGCAAUAUUACGCACA | -0.575 ± 0.11 | 0.157 ± 0.13 |
| UUGAAGCAAUAUUACGCAGU | -1.2 ± 0.3 | -1.54 ± 0.32 |
| UUGAAGCAAUAUUACGCAUC | -3.54 ± 0.33 |  |
| UUGAAGCAAUAUUACGCAUG | -0.179 ± 0.12 | -0.519 ± 0.11 |
| UUGAAGCAAUAUUACGCCCA | 0.429 ± 0.12 | 0.296 ± 0.16 |
